Measurements from the DeepSol protein solubility set.

test: soluble on expression in E. coli; label from the status in PepcDB or PDB records

| Sequence | soluble on expression in E. coli |
| --- | --- |
| MAQITTTDANEFSSSAEFIPMRGFSNCHLQTMLPRLFRRQVKFTPYWQRLELPDGDFVDLAWSENPAQAQHKPRLVVFHGLEGSLNSPYAHGLVEAAQKRGWLGVVMHFRGCSGEPNRMHRIYHSGETEDASWFLRWLQREFGHAPTAAVGYSLGGNMLACLLAKEGNDLPVDAAVIVSAPFMLEACSYHMEKGFSRVYQRYLLNLLKANAARKLAAYPGTLPINLAQLKSVRRIREFDDLITARIHGYADAIDYYRQCSAMPMLNRIAKPTLIIHAKDDPFMDHQVIPKPESLPPQVEYQLTEHGGHVGFIGGTLLHPQMWLESRIPDWLTTYLEAKSCLEHHHHHH | not soluble |
| MAQKKPKRNLSALKRHRQSLKRRLRNKAKKSAIKTLSKKAIQLAQEGKAEEALKIMRKAESLIDKAAKGSTLHKNAAARRKSRLMRKVRQLLEAAGAPLIGGGLSA | soluble |
| MAQKTFTVTADSGIHARPATTLVQAASKFDSDINLEFNGKTVNLKSIMGVMSLGIQKGATITISAEGSDEADALAALEDTMSKEGLGE | soluble |
| MAQMYFYYSAMNAGKSTTLLQSSFNYQERGMTPVIFTAALDDRYGVGKVSSRIGLQSDAHLFRPDTNLYQEIAALHEVEKRHCIL | not soluble |
| MAQSKHGLTKEMTMKYRMEGCVDGHKFVITGEGIGYPFKGKQAINLCVVEGGPLPFAEDILSAAFNYGNRVFTEYPQDIVDYFKNSCPAGYTWDRSFLFEDGAVCICNADITVSVEENCMYHESKFYGVNFPADGPVMKKMTDNWEPSCEKIIPVPKQGILKGDVSMYLLLKDGGRLRCQFDTVYKAKSVPRKMPDWHFIQHKLTREDRSDAKNQKWHLTEHAIASGSALP | soluble |
| MARKHIYIAYTGGTIGMKKSDHGYVPVAGFMEKQLASMPEFHRPEMPLFTIHEYDPLMDSSDMTPADWQLIADDIAANYDKYDGFVILHGTDTMAYTASALSFMFENLGKPVIVTGSQIPLADLRSDGQANLLNALHVAANYPINEVTLFFNNRLMRGNRSRKSHADGFSAFSSPNLPPLLEAGINIELSTNVKVDEKPSGEFKVNPITPQPIGVITMYPGISHEVIRNTLLQPVNAMILLTFGVGNAPQNPELLAQLKAASERGVIVVNLTQCLAGKVNMGGYATGCALADAGVISGYDMTPEAALAKLHYLLSQNLSYEEVKAKMQQVLRGEMTL | soluble |
| MARKNLIGISESPLAPEDGERPAVGRPIAGLAPAQRSTGLVGGITRSLSNITQKVERAEELERQLADGHAIVELDPELIDSSFIIDRLGVAPDVQAMLVQQIRDHGQQVPILVRPHPAESGRYQVAYGHRRLAALREIGIKVKAVIRNLNDEQLVISQGQENNARTDLSFIERALFATRLEDRGFSRDTIMSALGVDKAALSKMIAVVRRLPLDIIEAIGAAPGFGRRRWMELADLIDRDDRRPKALHFIETAAFKALESDQRFEKLFALLSLARKPSKAETWIAPDRSRPVRIRETDAETTLAFSKKAAPGFAEFVRQRLEALYLEYQRETGD | not soluble |
| MARPQSKKKQTQIVRRSRPRGRLVPPGRLIAGRDFPEFLQQAVLLSGSLRQAARKLRVSYSTLRGWLGRRCEEPPEAERDLLAEHAAAIRAELDAASEHLATVRGQLDVLEHGE | not soluble |
| MARQLRAEQTRATIIGAAADLFDRRGYESTTLSEIVAHAGVTKGALYFHFAAKEDLAHAILEIQSRTSRRLAKDLDGRGYSSLEALMRLTFGMARLCVQGPVLRAGLRLATAGVPVRPPLPHPFTEWREIATSRLLDAVRQSDVHQDIDVDSVAHTLVCSVVGTRVVGGTLEPAGREPRRLAEMWYILIRGMVPVTRRARYVTLAARLEQETGTA | soluble |
| MARQSSSLKSFIYKDECYFYSKKCIKTLRLRLNEKGEFVLSIPYFCTFKSVYEFLDKSSSWMNEAKKRFEKKVLKDDELIFLAKKYKIIFDENTKKTYFDKDKIICQNKAKLDLFLRQNAKKIFTFYLKKWSQKTGLFYTHLSIKNMKTRWGSCNHNKAYVNLNLKLIQKSLRAIEYVILHEISHLKFPNHSKEFYTFIEHFMSDFRQREKEFLSLEHHHHHH | soluble |
| MARRQTSSNGAGETRENLLRLAARIFSAQGYSGTTMRSIAQQAGIETASIYYHFPSKEDLVDEVMEIGATAIIQHMTERIEALGDGATAEERFRAAVLGQMAGMVKHGEYTLASSSLIEQLPEKVRERQSKRRESYQKLWAGLLEDLRAEGRLRSDVDLHLARMFILGSVQSIRYWFNPRKGSLEKVAAQLCDLFFEGVGQRG | soluble |
| MASMTGGQQMGRGSDYFEPQQQQQQQQQQPQGASTPKVFVGYSIYKGKAALTVEPRSPEFSPLDSGAFKLSREGMVMLQFAPAAGVRQYDWSRKQVFSLSVTEIGSIISLGTKDSCEFFHDPNKGRSDEGRVRKVLKVEPLPDGSGHFFNLSVQNKLINLDENIYIPVTKAEFAVLVSAFNFVMPYLLGWHTAVNSFKPEDASRSNNANPRSGAELEWNLEHHHHHH | soluble |
| MASNSSSCPTPGGGHLNGYPVPPYAFFFPPMLGGLSPPGALTTLQHQLPVSGYSTPSPATIETQSSSSEEIVPSPPSPPPLPRIYKPCFVCQDKSSGYHYGVSACEGCKGFFRRSIQKNMVYTCHRDKNCIINKVTRNRCQYCRLQKCFEVGMSKESVRNDRNKKKKEVPKPECSESYTLTPEVGELIEKVRKAHQETFPALCQLGKYTTNNSSEQRVSLDIDLWDKFSELSTKCIIKTVEFAKQLPGFTTLTIADQITLLKAACLDILILRICTRYTPEQDTMTFSDGLTLNRTQMHNAGFGPLTDLVFAFANQLLPLEMDDAETGLLSAICLICGDRQDLEQPDRVDMLQEPLLEALKVYVRKRRPSRPHMFPKMLMKITDLRSISAKGAERVITLKMEIPGSMPPLIQEMLENSEGLDTLSGQPGGGGRDGGGLAPPPGSCSPSLSPSSNRSSPATHSP | soluble |
| MASPELAEKLKKRLDGTDQEPETNPHQAPPPAPVIPQKIVENPYIPSVDTSIDDLIFKALEKKEENNNNNNNNNSNSTTTTPLEIKTERNQQHEHTTIDPRSPPPKRSILELLEQERLENELQQQSAPVPKTPVMVITKGAFPRSASPRRQQFVRENEDGNELEKRLAAQRMKKYTEEMESLVQKQVDVLDQIMSSPPPPPTSPPQLPPTPPARITSVRSDESIEEEERRRKESEETASFEELEAEIMRISRSPVPPPVLSIPPPPPPNIPLPTIPQEVQSPPSPRPTSVPPPIPSPGPSEDVNMDELIESFSDSVIFNNSMSPPPPLPPLRESSLETLEVTPEDPVTESKVEASPTPLPKATESLNESSIKALEGLEVKALEAQEASDDRPSAPTPIRDSSLPPPPPPKPETPLAIRRAGPIPTPQLLEMIHQEDCSIRPSSPTSVSHGSRPQSPAVPKKPSVTVSPLGLLCDPNLSIEKPEEMKTEDTKPVETAPAPVDEAELNDALDRRNKINEATCLTKIFPSLARMFR | not soluble |
| MASPHQEPKPGDLIEIFRLGYEHWALYIGDGYVIHLAPPSEYPGAGSSSVFSVLSNSAEVKRERLEDVVGGCCYRVNNSLDHEYQPRPVEVIISSAKEMVGQKMKYSIVSRNCEHFVTQLRYGKSRCKQVEKAKVEVGVATALGILVVAGCSFAIRRYQKKATALEHHHHHH | not soluble |
| MASPSASADDVKLTADGKICLDDPAEFLKRKPKKSILKMKQDSSLEGKDGRAHFDEMNILATYHPTDKDYGSMKIDEPKTPYHHSDGESECDEGVLGVPTTRPRRVSLGNAIDPEKVAEGLAHPESGKSLSSAEDSEDEADLTEEQRAHRRDFEKKRRAHYNEGAALKHHPELEDDEEEATAAAAGAGGNMEH | not soluble |
| MASSKIVPLYQSMLNDLIRQIESGELVENAKLPSEQKLGEKYDVSRITVRRALAELENKDYIYKKQGQGSFVKNKEDIDLGIHYLDVRKAIENMNAVPEIRLEAFKLIVDGSESDVRKVMEINSDVYLYYLRYMVYADHRPVFHEQVYLPFERFPRIFNSEIVNNDLMPFLVKKYGLKASFFSHTQPALITKSNRKEFDLNVGDPMIYMQTRGIEEKEIIYYRKAAVVGNLIMYIVG | not soluble |
| MASSSLIMGNNMHVKYLAGIVGAALLMAGCSSSNELSAAGQSVRIVDEQPGAECQLIGTATGKQSNWLSGQHGEEGGSMRGAANDLRNQAAAMGGNVIYGISSPSQGMLSSFVPTDSQIIGQVYKCPNLEHHHHHH | not soluble |
| MASSYSASAEPARVRALVYGHHGDPAKVVELKNLELAAVRGSDVRVKMLAAPINPSDINMIQGNYGLLPELPAVGGNEGVAQVVAVGSNVTGLKPGDWVIPANAGLGTWRTEAVFSEEALIQVPSDIPLQSAATLGVNPCTAYRMLMDFEQLQPGDSVIQNASNSGVGQAVIQIAAALGLRTINVVRDRPDIQKLSDRLKSLGAEHVITEEELRRPEMKNFFKDMPQPRLALNCVGGKSSTELLRQLARGGTMVTYGGMAKQPVVASVSLLIFKDLKLRGFWLSQWKKDHSPDQFKELILTLCDLIRRGQLTAPACSQVPLQDYQSALEASMKPFISSKQILTM | soluble |
| MASTAAETEKPEDHNDLVQLCNPHIAAMKEDILYHFSLSTSTHDFPAMFGDVKFVCVGGSPSRMKAFIKYVAMELGFAHPGADYPNICEGTDRYAMFKVGPVLSVSHGMGVPSIAIMLHELIKLLYHAHCSGVTLIRIGTSGGIGLEPGSVVITRQAVDPCFKPEFEQIVLGKREVRNTDLDEQLVQELARCSAELGEFPTVVGNTMCTLDFYEGQGRLDGALCSYTEKDKQDYLRAAYAAGIRNIEMEASVFAAMCNACGLRAAVVCVTLLNRLEGDQISSPHDVLAEYQQRPQRLVGQFIKKRLMQA | soluble |
| MASYKQNLPPSALIKQQVNVADKKSKAEVQRDRQLEEDRKAGTAPAMVDVQTGRDINPHIPMFISQNPWYVPSEGPTLKHQRPHEEREKKMTQIHEWYQKGTTGKSATKFRKGACENCGAMGHQKRDCFDRPRKSNAKETNDNIAEDDYVQPNLTLGFDAKRDRWNGYDPSTHKQVIEDYEHLEEARKVVREHEMKEGEVEPATTEDGAPKDEDMYAEDADMAGVSVDMDSRTRITVRNLRIREDTAKYLYNLAENSPYYDPKSRSMRENPFAGVAGKELEAARFSGDNFVRYSGEVTAANEAQVFAWQATRGGVYAHSIAEPTKLEALKKEYEKEKSTLKNETQKELLDKYGGGEHMERPADELLLAQTESYIEYNRKGKVIKGKEKVAISSRFKEDIYPQNHTSVFGSFWREGRWGYKCCHQFVKNSYCTGKQGIEAETSAAKGTTTSNEEIFKVPKLVEKTEVKEEKEKEDSIKDEVAEENSDNDNDEEKEKVSEKSISPSPPSDDEEKEKEREKERLIEKERRERDQRRRDKKREKRERKKAKLGKRKRRHRDSDDESDPSSGSGSESDSDEEMRKAMKKAKREKAEGMKAAREGDRGRKYNTDYSNTAPNEKEMEAYRVTSVHSADPMAAYMNSKFEKKHTK | not soluble |
| MATDHIRYDVLARDALRGVLRHVLTDVAQHGLPGEHHFFITFQSKGDGVKLSPRLLAQYPEEMTVVLQHQFWDLVVTEDRFEVGLSFGGIPERLVVPFASIKSFFDPSVKFGLQFEAADEVDETGEADDGTELVTAAPAPVALPTSSATTDSSAPSDDEPPRSGEGAEVVRLDRFRKKLEHHHHHH | soluble |
| MATEAPTQSYSEQWYWDDRYKNESEPFDWYQKYSPLAPLINLYVPQRNQRVLVIGCGNSAFSEGMVDDGYEDVVSIDISSVVIDTMIKKYSDRPQLKYLKMDVRDMKAFEDASFDAVIDKGTLDSILCGSNSRQYSTQMLEEVWRVLKDKGVYILITYGAPIYRLRLFKESCSWTTKLHVIDKSLTDQPLDTPKWELTKPLPLDADGSSVESAIGKNPDVHYIYVCIKDESSKMEADAA | soluble |
